6 molecules from patent US20180127502A1 (Memorial Sloan Kettering, published 2018) can be followed below.

Substitutions are numbered along the chain they refer to.

The target in one experiment is human PD-1 monomer (human, UniProt Q15116 25-167, limits assumed). Put plainly: ELISA on PD-1 monomer (FIG. 1). The text has this: ET901 ScFv-Fc (mouse IgG1 Fc) served as the negative control.
(In an ELISA, binding on a coated surface is turned into a signal by an enzyme label.)

Experiment [1] concerns the target T1, human PD-1 on human T cells (human, UniProt Q15116 25-288).
T1 construct: whole, on cells; In the functional rows it is the PD-1 of the transduced human peripheral blood T cells; also called PD-1 T cells; human T cells modified to overexpress human PD-1
Put plainly: flow cytometry, 1 µg/ml antibody, human T cells overexpressing human PD-1, goat anti-human Ig FITC. The text has this:
Flow cytometry was used to detect bound antibody using a goat anti-human Ig FITC conjugated antibody. […] Data shown is representative of one experiment.

T1 sequence (Q15116 25-288): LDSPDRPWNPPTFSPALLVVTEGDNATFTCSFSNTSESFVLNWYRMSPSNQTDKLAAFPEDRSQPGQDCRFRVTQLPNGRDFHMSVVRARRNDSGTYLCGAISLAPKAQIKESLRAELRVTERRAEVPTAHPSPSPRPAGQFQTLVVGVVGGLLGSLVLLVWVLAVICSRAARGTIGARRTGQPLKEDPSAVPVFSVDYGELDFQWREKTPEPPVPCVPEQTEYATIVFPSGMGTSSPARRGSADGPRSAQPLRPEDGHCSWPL
human PD-1 monomer, sequence (Q15116 25-167 limits assumed): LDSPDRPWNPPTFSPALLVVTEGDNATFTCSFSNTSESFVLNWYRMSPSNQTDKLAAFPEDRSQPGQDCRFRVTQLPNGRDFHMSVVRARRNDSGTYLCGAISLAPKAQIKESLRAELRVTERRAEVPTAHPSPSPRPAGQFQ

B1: anti-PD-1 scFv-Fc clone 26 (scFv linked to murine Fc) (Fc fusion)
chain: QSVLTQPPSVSVAPGKTARITCGGNNIGSKSVHWYQQKPGQAPVLVIYYDSDRPSGIPERFSGSNSGNTATLTISRVEAGDEADYYCQVWDNHSDVVFGGGTKLTVLGGGGGSGGGGSGGGGSQVQLVESGGGLVQPGGSLRLSCAASGYTRNKFSSYAMSWVRQAPGKGLEWVSGISGSGGTTYYADSVKGRFTISRDNSKNTQYLQLDSLRAEDTAVYYCARWYSSYYDVWGQGTLVTVSS
notes: also called PD1-26; not shown: murine Fc (mouse IgG1a) domain
Take B1: the binding result with human PD-1 monomer is given as “binds”.

B2: anti-PD-1 scFv-Fc clone 23 (scFv linked to murine Fc) (Fc fusion)
chain: QAVLTQPPSMSEAPRQRVTISCSGSSSNIGNNAVNWYQQLPGKAPKLLIYYNDLLSSGVSDRFSGSKSGTSASLAISGLQSEDEADYYCAAWDDSVNGYVFGTGTKVTVLGGSRGGGGSGGGGSGGGGSEVQLVQSGAEVKKPGDSVKVSCKASGYTFTRFGFSWVRQAPGQGLEWMGWISVNNGNTKYAQKYQGRVTMTTDTSTSTAYMELRSLRSDDTAVYYCARYMYGRRDSWGQGTLVTVSS
notes: also called PD1-23; not shown: murine Fc (mouse IgG1a) domain
As to B2, in the experiment with human PD-1 monomer, the binding result is recorded as “binds”.

B3: anti-PD-1 clone 23 monoclonal antibody (antibody, V domains shown)
VH: EVQLVQSGAEVKKPGDSVKVSCKASGYTFTRFGFSWVRQAPGQGLEWMGWISVNNGNTKYAQKYQGRVTMTTDTSTSTAYMELRSLRSDDTAVYYCARYMYGRRDSWGQGTLVTVSS
VL: QAVLTQPPSMSEAPRQRVTISCSGSSSNIGNNAVNWYQQLPGKAPKLLIYYNDLLSSGVSDRFSGSKSGTSASLAISGLQSEDEADYYCAAWDDSVNGYVFGTGTKVTVLG
notes: also called Clone 23 mAb; ET130-23
As to B3, the “percent of PD-1 human T cells bound” value in experiment [1] turned out to be 51%.

B4: anti-PD-1 scFv-Fc clone 40 (scFv linked to murine Fc) (Fc fusion)
chain: QSVLTQPPSASGTPGQRVTISCSGSRSNIGENTVNWYQQLPGTAPKLLIYSNNQRPSGVPDRFSGSKSGTSASLAISGLHSDDEADYFCAAWDDRLNGYVFGTGTKVTVLGGGGGSGGGGSGGGGSQVQLVQSGPEVKKPGASVKVSCKASGYTFTNYGFTWVRQAPGQGLEWMGWIGAQKGDTEYAQKFQGRVTMTTDTSTSTVYLELRSLRSDDTAVYYCARSQGVPFDSWGQGTLVTVSS
notes: also called PD-1-40; not shown: murine Fc (mouse IgG1a) domain
Consider B4, for which the binding result with human PD-1 monomer is “binds”.

B5: anti-PD-1 clone 26 monoclonal antibody (antibody, V domains shown)
VH: QVQLVESGGGLVQPGGSLRLSCAASGYTRNKFSSYAMSWVRQAPGKGLEWVSGISGSGGTTYYADSVKGRFTISRDNSKNTQYLQLDSLRAEDTAVYYCARWYSSYYDVWGQGTLVTVSS
VL: QSVLTQPPSVSVAPGKTARITCGGNNIGSKSVHWYQQKPGQAPVLVIYYDSDRPSGIPERFSGSNSGNTATLTISRVEAGDEADYYCQVWDNHSDVVFGGGTKLTVLG
notes: also called Clone 26 mAb; ET130-26
For the molecule B5, the “percent of PD-1 human T cells bound” value in experiment [1] worked out at 78%.

B6: anti-PD-1 clone 27 monoclonal antibody (antibody, V domains shown)
VH: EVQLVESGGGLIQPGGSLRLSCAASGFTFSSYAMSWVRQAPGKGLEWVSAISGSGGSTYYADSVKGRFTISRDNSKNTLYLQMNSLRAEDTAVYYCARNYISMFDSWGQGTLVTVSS
VL: B5 VL with K38R, N92S, H93S, V96Y, G100I, L104V
notes: also called Clone 27 mAb; E27 mAb
On to B6, for which the “percent of PD-1 human T cells bound” value in experiment [1] was 67%.
